Consider 44 molecules from USRE46585 (LABORATOIRE FRANCAIS DU FRACTIONNEMENT ET DES …, dated 2017).

Where a chain is given by its changes, count along the chain named.

First the molecules themselves.
B1: T6A_13 (other)
chain: CPPCTAPELLGGPSVFLFPPKPKDTLMISRTPEVTCVVVDVSHEDPEVKFNWYVDGVEVHNAKTKPREEQYNSTYRVVSVLTVLHQDWLDGKEYKCKVSNKALPVPIEKTISKAKGQPREPQVYTLPPSRDELTKNRVSLTCLVKGFYPSDIAVEWESNGQPENNYKTTPPVLDSDGSFFLYSKLTVDKSRWQQGNVFSCSVMHEALHYHYTQKSLSLSPGK
notes: EU numbering
B2: T7A_18 (other)
chain: B1 chain with T5P, V39E, D90N, V105A, R137Q, A153V, Q161R, Y209S
notes: EU numbering
B3: T5A_40 (other)
chain: B1 chain with V39E, T82P, D90N, V105A, R137Q, A153V, N196T, Y209N
notes: EU numbering
B4: T7A_49 (other)
chain: B1 chain with K95E, V105A
notes: EU numbering
B5: T5A_28 (other)
chain: B1 chain with T5P, F16L, V39E, D90N, V105A, R137Q, A153V
notes: EU numbering
B6: T4A_43 (other)
chain: B1 chain with T5P, D90N, V105A, I107V, R137Q, K145R, A153V, Y209S
notes: EU numbering
B7: T4A_41 (other)
chain: B1 chain with T5P, F16R, V39E, T82P, D90N, V105A, R137Q, A153V, Y209N
notes: EU numbering
B8: T7A_17 (other)
chain: B1 chain with T5P, V39E, P66S, D90N, V105A, A153V
notes: EU numbering
B9: T4A_34 (other)
chain: B1 chain with T5P, V39E, D90N, V105A, R137Q, A153V, Q193K, Y209N
notes: EU numbering
B10: T7A_35 (other)
chain: B1 chain with T5P, V105A, S219P
notes: EU numbering
B11: T7A_24 (other)
chain: B1 chain with T5P, V39E, D90N, V105A, R137Q, A153V, N196T
notes: EU numbering
B12: T7A_48 (other)
chain: B1 chain with L9R, R137Q
notes: EU numbering
B13: T7A_57 (other)
chain: B1 chain with T82A, R137Q, Q193E
notes: EU numbering
B14: T5A_51 (other)
chain: B1 chain with T5P, V39E, D90N, V105A, R137Q, A153V, F179L, Y209S
notes: EU numbering
B15: T6A_93 (other)
chain: B1 chain with T5P, T74K, Q86R, V105A, R137Q
notes: EU numbering
B16: T5A_05 (other)
chain: B1 chain with T5P, V39E, E44G, D90N, V105A, R137Q, A153V, N196T, Y209S
notes: EU numbering
B17: T8A_34 (other)
chain: B1 chain with T5P, T82A, V105A, T110A, R137Q
notes: EU numbering
B18: T5A_90 (other)
chain: B1 chain with T5P, R137Q, K167R, S199L
notes: EU numbering
B19: T7A_87 (other)
chain: B1 chain with T5S, V105A
notes: EU numbering
B20: T8A_45 (other)
chain: B1 chain with T5P, D90N, V105A, R137Q, S150A, A153V
notes: EU numbering
B21: T5A_52 (other)
chain: B1 chain with T5P, A102V, R137Q
notes: EU numbering
B22: T5A_03 (other)
chain: B1 chain with T5P, V39E, D90N, V105A, R137Q, P171L, Y209S
notes: EU numbering
B23: T4A_31 (other)
chain: B1 chain with F16L, V39E, T82P, D90N, V105A, R137Q, A153V, Y209N
notes: EU numbering
B24: T5A_59 (other)
chain: B1 chain with T5P, D90N, V105A, Q117R, R130G, R137Q, E157V
notes: EU numbering
B25: T5A_44 (other)
chain: B1 chain with T5P, F16L, V39E, T82P, D90N, V105A, R137Q, A153T, V172M, Y209N
notes: EU numbering
B26: T8A_81 (other)
chain: B1 chain with T5P, V39A, V105A, R137Q, E157V
notes: EU numbering
B27: T4A_44 (other)
chain: B1 chain with C1G, T5P, V39E, D90N, V105A, R137Q, A153V, F179L, Y209N
notes: EU numbering
B28: T4A_32 (other)
chain: B1 chain with T5P, V39E, D90N, V105A, R137Q, A153V, H208R, Y209N
notes: EU numbering
B29: T4A_45 (other)
chain: B1 chain with T5P, V39E, L84P, D90N, V105A, R137Q, P171L, Y209S
notes: EU numbering
B30: T5A_37 (other)
chain: B1 chain with T5P, S73G, R137Q
notes: EU numbering
B31: T6A_47 (other)
chain: B1 chain with D90N, K95T, V105A, R137Q
notes: EU numbering
B32: T4A_39 (other)
chain: B1 chain with T5P, V39E, D90N, V105A, R137Q, A153V, P171L, Y209N
notes: EU numbering
B33: T4A_46 (other)
chain: B1 chain with D90N, V105A, R137Q, N164K
notes: EU numbering
B34: T5A_29 (other)
chain: B1 chain with T5P, V105A, R137Q, E157V
notes: EU numbering
B35: T7A_46 (other)
chain: B1 chain with T5P, V39E, D90N, V105A, R137Q, A153V, G160R, Y209S
notes: EU numbering
B36: T8A_24 (other)
chain: B1 chain with T5P, V39E, T82P, D90N, V105A, R137Q, A153V, Y209S
notes: EU numbering
B37: T6A_40 (other)
chain: B1 chain with T5A, F16L, V39E, D90N, V105A, R137Q, A153V, N196T, Y209N
notes: EU numbering
B38: T7A_58 (other)
chain: B1 chain with T5P, V105A, R137E
notes: EU numbering
B39: T8A_41 (other)
chain: B1 chain with T5P, V39E, D90N, V105A, P118S, R137Q, A153V, Y209S
notes: EU numbering
B40: C6A_60C (other)
chain: B1 chain with P3L, T5S, V105A, R137Q, M203L
notes: EU numbering
B41: C6A_78B (other)
chain: B1 chain with P3L, T5P, T31N, D90N, V105A, R137Q, A153V
notes: EU numbering
B42: C6A_69D (other)
chain: B1 chain with P3L, T5P, T82A, R137Q, E157V, N164T
notes: EU numbering
B43: C6A_60D (other)
chain: B1 chain with P3R, T5S, V105A, R137Q, M203L
notes: EU numbering
B44: C6A_74D (other)
chain: B1 chain with P3R, T5P, V34I, V105A, R137Q
notes: EU numbering

The target in one assay is T1, FcRn-p3 fusion protein (human, UniProt P55899 24-297; P61769 21-119).
T1 construct: baculovirus expressed; coated on ELISA wells; not shown: amino terminal part of bacteriophage p3 protein and CVDE protein
T1 sequence (P55899 24-297, chain 1 of 2): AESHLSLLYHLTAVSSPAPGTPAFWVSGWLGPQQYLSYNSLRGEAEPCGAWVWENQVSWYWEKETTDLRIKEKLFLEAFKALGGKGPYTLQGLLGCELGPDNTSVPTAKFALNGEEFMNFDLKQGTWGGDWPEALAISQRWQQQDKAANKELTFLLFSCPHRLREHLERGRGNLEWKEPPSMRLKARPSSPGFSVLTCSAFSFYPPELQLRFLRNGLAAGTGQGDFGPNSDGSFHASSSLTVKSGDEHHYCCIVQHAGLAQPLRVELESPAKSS
T1 sequence (P61769 21-119, chain 2 of 2): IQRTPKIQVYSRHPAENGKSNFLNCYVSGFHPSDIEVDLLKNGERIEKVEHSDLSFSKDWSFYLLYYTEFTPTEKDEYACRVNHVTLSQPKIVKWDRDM
In words: phage ELISA pH6.
B1: the Ratio/Fc-H was determined as 2.9 fold.
B2: the Ratio/Fc-H amounted to 2.8 fold.
The same measure, in the same setting: the result for B3 reads 3.4 fold.
Still for that read-out and setting: the same measure for B4: 3.6 fold; for B5: 2.5 fold.
Still for that read-out and setting: the same measure for B6: 2 fold.
Consider B7, for which the Ratio/Fc-H came out at 2.5 fold.
Same read-out and setting: the result for B8 reads 2 fold; that for B9, 1.3 fold; that for B10, 1.7 fold.
The same measure, in the same setting: the result for B11 reads 2.3 fold; that for B12, 3.6 fold; that for B13, 2.5 fold.
For the molecule B14, the Ratio/Fc-H was 2.8 fold.
Take B15: the Ratio/Fc-H is 1.1 fold.
With B16, the Ratio/Fc-H amounted to 2.7 fold.
On the same count and under the same terms, the same measure for B17: 1.8 fold.
Regarding B18, the Ratio/Fc-H was 1.8 fold.
As to B19, the Ratio/Fc-H was 2.9 fold.
Consider B20, for which the Ratio/Fc-H was found to be 1.8 fold.
Still for that read-out and setting: the same measure for B21: 1.9 fold; for B22: 2 fold.
The same measure, in the same setting: the result for B23 reads 3.7 fold.
In the case of B24, the Ratio/Fc-H was determined as 2.4 fold.
For the molecule B25, the Ratio/Fc-H turned out to be 1.2 fold.
For B26, the Ratio/Fc-H amounted to 2.5 fold.
Still for that read-out and setting: the same measure for B27: 3.8 fold.
For the molecule B28, the Ratio/Fc-H is 2.3 fold.
The same measure, in the same setting: the same measure for B29: 2.7 fold.
Still for that read-out and setting: the result for B30 reads 2.2 fold; that for B31, 2.8 fold.
Still for that read-out and setting: the same measure for B32: 1.4 fold.
On to B33, for which the Ratio/Fc-H was 3.6 fold.
In the case of B34, the Ratio/Fc-H is 1.9 fold.
Consider B35, for which the Ratio/Fc-H came to 2.6 fold.
Same read-out and setting: the result for B36 reads 3.5 fold; that for B37, 2.8 fold; that for B38, 2.9 fold.
Still for that read-out and setting: the result for B39 reads 2.5 fold.

The target in a further assay is T1, FcRn-p3 fusion protein. In words: phage ELISA pH6 (est.).
Take B40: the Ratio/Fc-WT is 17.1 fold.
Same read-out and setting: the result for B41 reads 45.9 fold; that for B42, 15.3 fold.
Same read-out and setting: the result for B43 reads 23.8 fold; that for B44, 59.7 fold.

Another assay deals with T1, FcRn-p3 fusion protein. In words: phage ELISA pH6. The source holds these as a separate data set.
Turning to B40, the Ratio/Fc-H worked out at 5.3 fold.
With B41, the Ratio/Fc-H came out at 14.4 fold.
B42: the Ratio/Fc-H was determined as 4.8 fold.
Still for that read-out and setting: the same measure for B43: 7.4 fold; for B44: 18.6 fold.

The target in the next assay is T1, FcRn-p3 fusion protein. In words: phage ELISA pH6 (est.). This is another data set of the same source.
B1: the Ratio/FWT was found to be 9.3 fold.
Same read-out and setting: the result for B2 reads 8.9 fold; that for B3, 10.8 fold; that for B4, 11.6 fold.
As to B5, the Ratio/FWT turned out to be 7.9 fold.
The same measure, in the same setting: the result for B6 reads 6.3 fold; that for B7, 8 fold.
With B8, the Ratio/FWT amounted to 6.3 fold.
On the same count and under the same terms, the result for B9 reads 4.3 fold.
B10: the Ratio/FWT turned out to be 5.4 fold.
Same read-out and setting: the same measure for B11: 7.2 fold; for B12: 11.6 fold.
Take B13: the Ratio/FWT was determined as 8.1 fold.
On the same count and under the same terms, the result for B14 reads 9 fold; that for B15, 3.5 fold; that for B16, 8.8 fold.
The same measure, in the same setting: the result for B17 reads 5.6 fold; that for B18, 5.7 fold.
On the same count and under the same terms, the result for B19 reads 9.3 fold; that for B20, 5.9 fold; that for B21, 5.9 fold.
B22: the Ratio/FWT was found to be 6.4 fold.
As for B23, the Ratio/FWT was found to be 11.7 fold.
Still for that read-out and setting: the same measure for B24: 7.8 fold; for B25: 3.8 fold; for B26: 8.2 fold.
The same measure, in the same setting: the result for B27 reads 12 fold; that for B28, 7.4 fold.
Turning to B29, the Ratio/FWT is 8.7 fold.
Still for that read-out and setting: the same measure for B30: 7 fold; for B31: 9.1 fold; for B32: 4.4 fold.
On the same count and under the same terms, the same measure for B33: 11.4 fold; for B34: 6 fold; for B35: 8.2 fold.
Same read-out and setting: the same measure for B36: 11.1 fold; for B37: 9.1 fold.
Turning to B38, the Ratio/FWT turned out to be 9.4 fold.
The same measure, in the same setting: the same measure for B39: 7.9 fold.
